Experimental data: patent publication US20230242654A1, “REAGENTS FOR EXPANDING CELLS EXPRESSING RECOMBINANT RECEPTORS” (Juno Therapeutics, Inc., priority 2017, published 2023)

Key:
Assay type in all cases: cell-based, human
[1] = test system: CD4+ or CD8+ CAR-expressing T cells; assay: Expansion after serial restimulation, 4 rounds in 14 days
Experimental: The ability of cells to expand ex vivo following repeated stimulations may be a potential surrogate for capacity of CAR+ T cells to persist (e.g. following initial activation) and/or is indicative of function in vivo (Zhao et al. (2015) Cancer Cell, 28:415-28). CAR+ T cells were generated as described above and thawed CD4+ or CD8+ CAR-expressing T cells were plated separately at 50,000 CAR+ cells/well. Anti-ID B-1 conjugated beads were added to cells at a 1:1 or 1:5 cell:bead ratio in the presence or absence of cytokines as described in Example 10. As a control, anti-CD3/anti-CD28 magnetic beads were added to cells at a 3:1 cell:bead ratio in the presence or absence of the cytokines. Cells were harvested every 3-4 days and counted, and restimulated with new […] using the same culture conditions after resetting cell number to initial seeding density for each round. A total of 4 rounds of stimulation during a 14 day culture period were carried out. For each round of stimulation, the number of doublings was determined.

[2] = test system: T cells transduced with anti-CD19 CAR having an scFv derived from FMC63; assay: CAR-specific cell expansion with anti-ID B-1 conjugated beads, 9 days, two patient donors
Experimental: Similar studies as those described in Examples 11 and 12 were performed, except using CAR-expressing T cells generated from two different patient donors. CD3-purified T cells were isolated from peripheral blood mononuclear cells (PBMCs) of two donor patients, transduced with a viral vector encoding an anti-CD19 CAR having an scFv derived from FMC63, expanded in culture, frozen, and thawed.
Thawed CD4+, CD8+ or co-cultures of CD4/CD8 (1:1 ratio) were seeded in wells of a 6-well plate at approximately 5×10^6 total cells/well in culture media that was additionally supplemented with cytokines as follows: for CD4+ cells or CD4+/CD8+ co-cultures media was supplemented with approximately 1200 IU/mL recombinant IL-7, 20 IU/mL recombinant IL-15 and 100 IU/mL recombinant IL-2; for CD8+ cells media was supplemented with 200 IU/mL recombinant IL-2 and 20 IU/mL recombinant IL-15. Anti-ID B-1 conjugated beads were added to cells at a 1:1 cell:bead ratio and incubated up to 9 days with a 50% media exchange every 2-3 days.
At various times of culture, the number of CD4+ or CD8+ transduced cells (as detected by anti-EGFR for expression of the EGFRt surrogate marker) present in the culture for each condition was assessed and fold expansion or frequency of the CAR-expressing cells as a percent of total cells was determined. Expression of PD-1 and CD25 and cell viability also was determined.

[3] = test system: T cells transduced with anti-CD19 CAR having an scFv derived from FMC63; assay: Cytokine levels and phenotype at thaw versus after 9 days with anti-ID B-1 conjugated beads; details: 9 days with beads versus immediately after thaw
Text: CD3-purified T cells were isolated from peripheral blood mononuclear cells (PBMCs) of two donor patients, transduced with a viral vector encoding an anti-CD19 CAR having an scFv derived from FMC63 and expanded in culture with anti-CD3 and anti-CD28 antibody coated beads. After expansion, the expanded T cells were frozen by cryopreservation. For the studies, frozen T cells were thawed and CD4+ and CD8+ T cells assessed for intracellular cytokine levels or surface phenotype (d=0) or thawed CD4+, CD8+, or CD4+/CD8+ co-culture T cells were cultured for an additional 9 days in the presence of anti-ID B-1 conjugated beads prior to assessing intracellular cytokine levels and surface marker phenotype following stimulation by PMA/ionomycin or CD19 transduced K562 cells (d=9).
For assessment of intracellular cytokine levels, Golgi inhibitor was added for 4 hours and then TNFα, IFNγ, and IL-2 was assessed by flow cytometry. For all conditions, the extent of intracellular cytokine expression was substantially greater when cells were stimulated in with PMA/ionomycin as compared to CAR-specific stimulation with CD19 transduced K562 cells. […] Similar results were obtained in cells from the two donors.
Surface expression of the activation marker CD25, surface expression of inhibitory receptors PD-1 and LAG-3, and nuclear expression of the proliferation marker Ki-67 were also assessed in CD4+ or CD8+ cells immediately after thaw (d=0) or in CD4+ or CD8+ T cells expanded alone or as a CD4/CD8 co-culture for an additional 9 days in the presence of the anti-ID conjugated beads (d=9).

[4] = test system: anti-CD19 CAR-T cell compositions; assay: Long-term (15 day) stimulation with anti-ID conjugated beads of CAR-T compositions made with compounds; details: 1:1 bead:cell, 15 days, counted every 5 days
Experimental: Engineered T cell compositions containing T cells that express an anti-CD19 CAR were generated from three separate donors in the presence of different compounds or a vehicle control.
The ability of the cells from the different T cell compositions to expand following stimulation of the CAR was assessed by incubating cells of the generated anti-CD19 CAR-T cell compositions with beads surface conjugated with an anti-idiotype antibody specific to the anti-CD19 CAR. The anti-ID conjugated beads were incubated with cells at a 1:1 bead:cell ratio in wells of 24-well G-rex expansion vessels (Argos Technologies) for 15 days. The total live T cells per well was determined by counting cells in the cultures every 5 days (FIG. 25A). The mean area under the curve (AUC) of the function of T cell number over time was calculated relative to the AUC of cells expanded with media only (FIG. 25B).
Secondary cytokine response after stimulation with antigen-expressing cells was assessed on CAR-T cells from the T cell compositions harvested at day 11 following expansion with anti-ID conjugated beads. The anti-ID stimulated cells were incubated with irradiated K562-CD19 target cells at an effector:target ratio of 1:1 for approximately 16 hours. Supernatant was collected and TNF-alpha, IFN-gamma, and IL-2 cytokine production were measured using a Luminex Multiplex Assay. […]

B1: anti-ID conjugated beads: FMC63-derived scFv-specific anti-idiotype antibody (B-1 in Examples 10-14) covalently coupled to tosyl-activated magnetic beads (conjugate)
heavy: EVQLQQSGPELVKPGASVKMSCKASGYTFTDYYMKWVKQCHGKSLEWIGDINPNNGGTDYNQNFKGKATLTVDKSSSTAYMQLNSLTSEDSAVYYCAREGNNYGSRDAMDYWGQGTSVTVSSAKTTAPSVYPLAPVCGDTTGSSVTLGCLVKGYFPEPVTLTWNSGSLSSGVHTFPAVLQSDLYTLSSSVTVTSSTWPSQSITCNVAHPASSTKVDKKIEPRGPTIKPCPPCKCPAPNLLGGPSVFIFPPKIKDVLMISLSPIVTCVVVDVSEDDPDVQISWFVNNVEVHTAQTQTHREDYNSTLRVVSALPIQHQDWMSGKEFKCKVNNKDLPAPIERTISKPKGSVRAPQVYVLPPPEEEMTKKQVTLTCMVTDFMPEDIYVEWTNNGKTELNYKNTEPVLDSDGSYFMYSKLRVEKKNWVERNSYSCSVVHEGLHNHHTTKSFSRTPGK
light: QIVLTQSPALMSASPGEKVTMTCSASSGVIYMYWYQQKPRSSPKPWIYLTSNLASGVPARFSGSGSGTSYSLTISSMEAEDAATYYCQQWSSNPLTFGAGTKLELKRADAAPTVSIFPPSSEQLTSGGASVVCFLNNFYPKDINVKWKIDGSERQNGVLNSWTDQDSKDSTYSMSSTLTLTKDEYERHNSYTCEATHKTSTSPIVKSFNRNEC
- expansion of CAR-expressing (EGFRt+) CD4+ cells after restimulation ([1]; 1:1 or 1:5 cell:bead, 4 rounds): continued cell expansion
- extent of expansion of CD4+ cells ([1]; versus anti-CD3/anti-CD28 beads): the extent of expansion was greater
- expansion of CD8+ T cells ([1]; versus anti-CD3/anti-CD28 beads, particularly without recombinant cytokines): expansion was somewhat greater
- expansion of CAR-expressing (EGFRt+) CD4+ T cells ([2]; CD4+ cells cultured alone, 1:1 cell:bead, up to 9 days): over 60 fold
- expansion of CAR-expressing (EGFRt+) CD8+ T cells ([2]; CD8+ T cells co-cultured with CD4+ cells): substantially higher expansion
- CD25 expression ([2]; after 9 days): also was decreased
- frequency of transduced cells (EGFRt+) in the culture ([2]; day 9): > 90%
- PD-1 expression on CD4+ and CD8+ T cells ([2]; days 5, 7 and 9): decreased substantially over time
- Viability of CD4+ and CD8+ cells ([2]; during the 9 day culture): ~100%
- expression of CD25 and Ki-67 [3]: reduced expression of CD25, but not Ki-67
- expression of PD-1 and LAG-3 [3]: decreased expression of PD-1 and LAG-3
- levels of IFNγ [3]: Increased levels of IFNγ
- total live T cells per well [4]: initial expansion that was followed by a decline in cell number
